Earlier results in article PMC12428796.

How the values were obtained:
Conditions in all cases: No direct protein-aptamer binding assay in this paper (only cell uptake by flow cytometry/confocal in MIA PaCa-2 and L929, with anti-nucleolin blocking)
[1] = target: nucleolin (UniProt P19338)
[2] = target: matrix metalloproteinase 14 (MMP14) (UniProt P50281)
[3] = target: transferrin receptor 1 (TfR1) (UniProt P02786)
[4] = target: T1, cholecystokinin B receptor (CCKBR) (UniProt P32239)
T1 sequence (P32239 whole entry, looked up): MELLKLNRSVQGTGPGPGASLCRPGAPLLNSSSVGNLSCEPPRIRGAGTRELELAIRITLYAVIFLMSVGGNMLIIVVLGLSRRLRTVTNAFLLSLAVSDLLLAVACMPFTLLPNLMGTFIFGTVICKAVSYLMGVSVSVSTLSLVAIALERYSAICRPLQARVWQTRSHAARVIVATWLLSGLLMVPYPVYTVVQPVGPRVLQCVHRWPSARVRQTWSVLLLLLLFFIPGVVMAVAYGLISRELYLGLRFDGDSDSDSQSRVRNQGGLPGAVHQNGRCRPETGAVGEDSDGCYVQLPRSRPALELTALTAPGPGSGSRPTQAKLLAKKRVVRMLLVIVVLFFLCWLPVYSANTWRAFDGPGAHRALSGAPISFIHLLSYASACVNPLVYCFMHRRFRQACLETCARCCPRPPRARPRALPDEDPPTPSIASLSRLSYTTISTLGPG

Sequence of nucleolin (P19338 whole entry): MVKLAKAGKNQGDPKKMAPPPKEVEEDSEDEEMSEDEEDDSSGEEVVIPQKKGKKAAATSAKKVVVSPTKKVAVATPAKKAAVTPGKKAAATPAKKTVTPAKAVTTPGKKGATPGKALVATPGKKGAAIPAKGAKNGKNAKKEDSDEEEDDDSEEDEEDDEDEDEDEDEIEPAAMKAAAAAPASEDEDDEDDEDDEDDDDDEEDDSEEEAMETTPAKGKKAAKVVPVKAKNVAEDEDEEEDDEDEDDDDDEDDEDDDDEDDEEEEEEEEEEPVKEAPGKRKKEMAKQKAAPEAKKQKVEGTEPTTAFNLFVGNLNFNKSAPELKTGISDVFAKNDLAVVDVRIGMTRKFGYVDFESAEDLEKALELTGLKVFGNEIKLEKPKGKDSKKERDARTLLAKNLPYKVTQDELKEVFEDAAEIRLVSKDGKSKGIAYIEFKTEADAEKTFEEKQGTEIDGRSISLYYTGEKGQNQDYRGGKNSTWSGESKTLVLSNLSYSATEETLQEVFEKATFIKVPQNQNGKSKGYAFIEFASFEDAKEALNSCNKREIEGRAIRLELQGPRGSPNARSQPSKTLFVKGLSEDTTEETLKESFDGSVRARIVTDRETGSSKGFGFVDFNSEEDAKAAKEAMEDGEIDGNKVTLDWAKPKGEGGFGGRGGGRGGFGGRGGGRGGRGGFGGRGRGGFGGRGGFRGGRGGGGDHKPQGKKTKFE
Sequence of transferrin receptor 1 (TfR1) (P02786 whole entry): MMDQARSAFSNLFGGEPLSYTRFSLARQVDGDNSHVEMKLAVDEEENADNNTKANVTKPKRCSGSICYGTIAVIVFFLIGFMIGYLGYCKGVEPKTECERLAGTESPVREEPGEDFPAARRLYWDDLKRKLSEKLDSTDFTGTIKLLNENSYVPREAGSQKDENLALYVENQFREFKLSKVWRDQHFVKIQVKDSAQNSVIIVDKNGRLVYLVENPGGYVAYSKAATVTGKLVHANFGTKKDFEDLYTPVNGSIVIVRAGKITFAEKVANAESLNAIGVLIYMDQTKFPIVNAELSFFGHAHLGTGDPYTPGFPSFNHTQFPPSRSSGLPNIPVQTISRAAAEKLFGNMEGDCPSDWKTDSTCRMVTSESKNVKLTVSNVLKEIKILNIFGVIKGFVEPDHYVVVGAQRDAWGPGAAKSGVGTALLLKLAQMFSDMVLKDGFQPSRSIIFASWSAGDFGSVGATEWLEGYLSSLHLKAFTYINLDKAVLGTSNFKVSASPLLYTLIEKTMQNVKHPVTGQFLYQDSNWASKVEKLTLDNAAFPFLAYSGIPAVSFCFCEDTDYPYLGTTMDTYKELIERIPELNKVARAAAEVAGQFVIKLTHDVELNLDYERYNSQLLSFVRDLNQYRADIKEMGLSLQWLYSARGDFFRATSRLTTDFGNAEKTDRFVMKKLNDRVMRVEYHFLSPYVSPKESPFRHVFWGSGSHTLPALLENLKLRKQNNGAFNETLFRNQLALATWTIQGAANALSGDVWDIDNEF

For GGTGGTGGTGGTGTTGGTGGTGGTGG [AS1411], the Kd [1] is given as 16.4 nM.

In the case of “AGGGCCCGACGTGACGGCACGTCGGATATCTCATGCGTGT [M17]”, the Kd [2] is listed as 4.98 nM.

In the case of “ACTCATAGGGTTAGGGGCTGCTGGCCAGATACTCAGATGGTAGGGTTACTATGAGC [XQ-2D]”, the Kd [3] is given as 55 nM.

For “CATGGTGCAGGTGTGGCTGGGATTCATTTGCCGGTGCTGGTGCGTCCGCGGCCGCTAATCCTGTTC [AP1153]”, the Kd [4] is listed as 0.206 nM.
